The labels stand for the following.
B1: BK-B-110-hu2 (bispecific antibody)
chain: ELVMTQSPASLAVSLGQRATISCRASESVDSYGKSFMHWYQLKPGQPPKLLIYRASNLESGVPARFSGSGSRTDFTLTIDPVEADDAATYYCQQNNEDPWTFGGGTKLEIKGSTSGSGKPGSGEGSTKGEVQLEQSGPELVKPGASVKMSCKASGYTFTNYYMKWVKQSHGKSLEWIGDLNPNNGDTFYNQKFKGKATLTVDKSSNTAYMQLNSLTSEDSAVYYCARTGRYEENAMDYWGQGTSVTVSSPCPAPEFEGGPSVFLFPPKPKDTLMISRTPEVTCVVVDVSHEDPEVKFNWYVDGVEVHNAKTKPREEQYNSTYRVVSVLTVLHQDWLNGKEYKCKVSNKALPASIEKTISKAKGQPREPQVYTLPPSREEMTKNQVSLTCLVKGFYPSDIAVEWESNGQPENNYKTTPPVLDSDGSFFLYSKLTVDKSRWQQGNVFSCSVMHEALHNHYTQKSLSLSPGKGGGGSGGGGSGGGGSQAVVTQEPSLTVSPGGTVTLTCRSSTGAVTTSNYANWVQQKPGQAPRTLIGGTNKRAPWVPARFSGSLLGDKAALTLSGAQPEDEAEYYCALWYSNLWVFGGGTKLTVLGGGGSGGGGSGGGGSEVQLVESGGGLVQPGGSLRLSCAASGFTFNTYAMNWVRQAPGKGLEWVARIRSKYNNYATYYADSVKDRFTISRDDSKNILYLQMNSLKTEDTAVYYCVRHGNFGNSYVSWFAYWGQGTLVTVSA
B2: BK-B-110-hu6 (bispecific antibody)
chain: ELVMTQSPASLAVSLGQRATISCRASESVDSYGKSFMHWYQLKPGQPPKLLIYRASNLESGVPARFSGSGSRTDFTLTIDPVEADDAATYYCQQNNEDPWTFGGGTKLEIKGSTSGSGKPGSGEGSTKGEVQLEQSGPELVKPGASVKMSCKASGYTFTNYYMKWVKQSHGKSLEWIGDLNPNNGDTFYNQKFKGKATLTVDKSSNTAYMQLNSLTSEDSAVYYCARTGRYEENAMDYWGQGTSVTVSSPCPAPEFEGGPSVFLFPPKPKDTLMISRTPEVTCVVVDVSHEDPEVKFNWYVDGVEVHNAKTKPREEQYNSTYRVVSVLTVLHQDWLNGKEYKCKVSNKALPASIEKTISKAKGQPREPQVYTLPPSREEMTKNQVSLTCLVKGFYPSDIAVEWESNGQPENNYKTTPPVLDSDGSFFLYSKLTVDKSRWQQGNVFSCSVMHEALHNHYTQKSLSLSPGKGGGGSGGGGSGGGGSQAVVTQEPSLTVSPGGTVTLTCRSSTGAVTTSNYANWVQEKPGQAPRTLIGGTNKRAPWVPARFSGSLLGDKAALTLSGAQPEDEAEYYCALWYSNLWVFGGGTKLTVLGGGGSGGGGSGGGGSEVQLVESGGGLVQPGGSLRLSCAASGFTFNTYAMNWVRQAPGKGLEWVARIRSKYNNYATYYADSVKDRFTISRDDSKNILYLQMNSLKTEDTAMYYCVRHGNFGNSYVSWFAYWGQGTLVTVSA
B3: BK-B-110-hu3 (bispecific antibody)
chain: ELVMTQSPASLAVSLGQRATISCRASESVDSYGKSFMHWYQLKPGQPPKLLIYRASNLESGVPARFSGSGSRTDFTLTIDPVEADDAATYYCQQNNEDPWTFGGGTKLEIKGSTSGSGKPGSGEGSTKGEVQLEQSGPELVKPGASVKMSCKASGYTFTNYYMKWVKQSHGKSLEWIGDLNPNNGDTFYNQKFKGKATLTVDKSSNTAYMQLNSLTSEDSAVYYCARTGRYEENAMDYWGQGTSVTVSSPCPAPEFEGGPSVFLFPPKPKDTLMISRTPEVTCVVVDVSHEDPEVKFNWYVDGVEVHNAKTKPREEQYNSTYRVVSVLTVLHQDWLNGKEYKCKVSNKALPASIEKTISKAKGQPREPQVYTLPPSREEMTKNQVSLTCLVKGFYPSDIAVEWESNGQPENNYKTTPPVLDSDGSFFLYSKLTVDKSRWQQGNVFSCSVMHEALHNHYTQKSLSLSPGKGGGGSGGGGSGGGGSQAVVTQEPSLTVSPGGTVTLTCRSSTGAVTTSNYANWVQEKPGQAPRTLIGGTNKRAPWVPARFSGSLLGDKAALTLSGAQPEDEAEYYCALWYSNLWVFGGGTKLTVLGGGGSGGGGSGGGGSEVQLVESGGGLVQPGGSLRLSCAASGFTFNTYAMNWVRQAPGKGLEWVARIRSKYNNYATYYADSVKDRFTISRDDSKNILYLQMNSLKTEDTAVYYCVRHGNFGNSYVSWFAYWGQGTLVTVSA
B4: BK-B-110-hu1 (bispecific antibody)
chain: ELVMTQSPASLAVSLGQRATISCRASESVDSYGKSFMHWYQLKPGQPPKLLIYRASNLESGVPARFSGSGSRTDFTLTIDPVEADDAATYYCQQNNEDPWTFGGGTKLEIKGSTSGSGKPGSGEGSTKGEVQLEQSGPELVKPGASVKMSCKASGYTFTNYYMKWVKQSHGKSLEWIGDLNPNNGDTFYNQKFKGKATLTVDKSSNTAYMQLNSLTSEDSAVYYCARTGRYEENAMDYWGQGTSVTVSSPCPAPEFEGGPSVFLFPPKPKDTLMISRTPEVTCVVVDVSHEDPEVKFNWYVDGVEVHNAKTKPREEQYNSTYRVVSVLTVLHQDWLNGKEYKCKVSNKALPASIEKTISKAKGQPREPQVYTLPPSREEMTKNQVSLTCLVKGFYPSDIAVEWESNGQPENNYKTTPPVLDSDGSFFLYSKLTVDKSRWQQGNVFSCSVMHEALHNHYTQKSLSLSPGKGGGGSGGGGSGGGGSQAVVTQEPSLTVSPGGTVTLTCRSSTGAVTTSNYANWVQQKPGQAPRTLIGGTNKRAPWTPARFSGSLLGGKAALTLSGAQPEDEAEYYCALWYSNLWVFGGGTKLTVLGGGGSGGGGSGGGGSEVQLVESGGGLVQPGGSLRLSCAASGFTFNTYAMNWVRQAPGKGLEWVARIRSKYNNYATYYADSVKDRFTISRDDSKNILYLQMNSLKTEDTAVYYCVRHGNFGNSYVSWFAYWGQGTLVTVSA
B5: BK-B-110-hu4 (bispecific antibody)
chain: ELVMTQSPASLAVSLGQRATISCRASESVDSYGKSFMHWYQLKPGQPPKLLIYRASNLESGVPARFSGSGSRTDFTLTIDPVEADDAATYYCQQNNEDPWTFGGGTKLEIKGSTSGSGKPGSGEGSTKGEVQLEQSGPELVKPGASVKMSCKASGYTFTNYYMKWVKQSHGKSLEWIGDLNPNNGDTFYNQKFKGKATLTVDKSSNTAYMQLNSLTSEDSAVYYCARTGRYEENAMDYWGQGTSVTVSSPCPAPEFEGGPSVFLFPPKPKDTLMISRTPEVTCVVVDVSHEDPEVKFNWYVDGVEVHNAKTKPREEQYNSTYRVVSVLTVLHQDWLNGKEYKCKVSNKALPASIEKTISKAKGQPREPQVYTLPPSREEMTKNQVSLTCLVKGFYPSDIAVEWESNGQPENNYKTTPPVLDSDGSFFLYSKLTVDKSRWQQGNVFSCSVMHEALHNHYTQKSLSLSPGKGGGGSGGGGSGGGGSQAVVTQEPSLTVSPGGTVTLTCRSSTGAVTTSNYANWVQQKPGQAPRTLIGGTNKRAPWTPARFSGSLLGGKAALTLSGAQPEDEAEYYCALWYSNLWVFGGGTKLTVLGGGGSGGGGSGGGGSEVQLVESGGGLVQPGGSLRLSCAASGFTFNTYAMNWVRQAPGKGLEWVARIRSKYNNYATYYADSVKDRFTISRDDSKNILYLQMNSLKTEDTAMYYCVRHGNFGNSYVSWFAYWGQGTLVTVSA
B6: BK-B-110-hu5 (bispecific antibody)
chain: ELVMTQSPASLAVSLGQRATISCRASESVDSYGKSFMHWYQLKPGQPPKLLIYRASNLESGVPARFSGSGSRTDFTLTIDPVEADDAATYYCQQNNEDPWTFGGGTKLEIKGSTSGSGKPGSGEGSTKGEVQLEQSGPELVKPGASVKMSCKASGYTFTNYYMKWVKQSHGKSLEWIGDLNPNNGDTFYNQKFKGKATLTVDKSSNTAYMQLNSLTSEDSAVYYCARTGRYEENAMDYWGQGTSVTVSSPCPAPEFEGGPSVFLFPPKPKDTLMISRTPEVTCVVVDVSHEDPEVKFNWYVDGVEVHNAKTKPREEQYNSTYRVVSVLTVLHQDWLNGKEYKCKVSNKALPASIEKTISKAKGQPREPQVYTLPPSREEMTKNQVSLTCLVKGFYPSDIAVEWESNGQPENNYKTTPPVLDSDGSFFLYSKLTVDKSRWQQGNVFSCSVMHEALHNHYTQKSLSLSPGKGGGGSGGGGSGGGGSQAVVTQEPSLTVSPGGTVTLTCRSSTGAVTTSNYANWVQQKPGQAPRTLIGGTNKRAPWVPARFSGSLLGDKAALTLSGAQPEDEAEYYCALWYSNLWVFGGGTKLTVLGGGGSGGGGSGGGGSEVQLVESGGGLVQPGGSLRLSCAASGFTFNTYAMNWVRQAPGKGLEWVARIRSKYNNYATYYADSVKDRFTISRDDSKNILYLQMNSLKTEDTAMYYCVRHGNFGNSYVSWFAYWGQGTLVTVSA

Chain of TT3 labeling polypeptide on cells (P01732 other isoform, or with tags, fused parts or gaps limits assumed): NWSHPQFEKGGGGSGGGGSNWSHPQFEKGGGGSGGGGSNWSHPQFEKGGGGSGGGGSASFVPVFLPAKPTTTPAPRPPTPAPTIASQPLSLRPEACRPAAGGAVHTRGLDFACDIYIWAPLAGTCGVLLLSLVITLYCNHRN

The test has as its target TT3 labeling polypeptide on cells. Kind of test: flow cytometry (as for Table 1).
As to B1, the binding result is given as “binds”. As for B2, the binding result is reported as “binds”. With B3 the entry was “binds”; with B4, “binds”; with B5, “binds”. The value for B6 was “binds”.

The values above are taken from US20250304690A1 (HANGZHOU VIROMAB BIOTECH, published 2025).
